To fix the notation:
B1: neuropilin 1 receptor (receptor, UniProt O14786 273-586, looked up)
chain: FKCMEALGMESGEIHSDQITASSQYSTNWSAERSRLNYPENGWTPGEDSYREWIQVDLGLLRFVTAVGTQGAISKETKKKYYVKTYKIDVSSNGEDWITIKEGNKPVLFQGNTNPTDVVVAVFPKPLITRFVRIKPATWETGISMRFEVYGCKITDYPCSGMLGMVSGLISDSQITSSNQGDRNWMPENIRLVTSRSGWALPPAPHSYINEWLQIDLGEEKIVRGIIIQGGKHRENKVFMRKFKIGYSNNGSDWKMIMDDSKRKAKSFEGNNNYDTPELRTFPALSTRFIRIYPERATHGGLGLRMELLGCEVE
notes: The construct is not defined; The same entry is used for the SPR and ELISA experiments; also called NRP1; NRP 1
B2: VEGF165 (ligand, UniProt P15692-4 27-191, looked up)
chain: APMAEGGGQNHHEVVKFMDVYQRSYCHPIETLVDIFQEYPDEIEYIFKPSCVPLMRCGGCCNDEGLECVPTEESNITMQIMRIKPHQGQHIGEMSFLQHNKCECRPKKDRARQENPCGPCSERRKHLFVQDPQTCKCSCKNTDSRCKARQLELNERTCRCDKPRR

One assay deals with T1, semaphorin 3A (UniProt Q14563 21-771, limits assumed).
T1 construct: also called Sema3A; Sema3A ligand
T1 sequence (looked up): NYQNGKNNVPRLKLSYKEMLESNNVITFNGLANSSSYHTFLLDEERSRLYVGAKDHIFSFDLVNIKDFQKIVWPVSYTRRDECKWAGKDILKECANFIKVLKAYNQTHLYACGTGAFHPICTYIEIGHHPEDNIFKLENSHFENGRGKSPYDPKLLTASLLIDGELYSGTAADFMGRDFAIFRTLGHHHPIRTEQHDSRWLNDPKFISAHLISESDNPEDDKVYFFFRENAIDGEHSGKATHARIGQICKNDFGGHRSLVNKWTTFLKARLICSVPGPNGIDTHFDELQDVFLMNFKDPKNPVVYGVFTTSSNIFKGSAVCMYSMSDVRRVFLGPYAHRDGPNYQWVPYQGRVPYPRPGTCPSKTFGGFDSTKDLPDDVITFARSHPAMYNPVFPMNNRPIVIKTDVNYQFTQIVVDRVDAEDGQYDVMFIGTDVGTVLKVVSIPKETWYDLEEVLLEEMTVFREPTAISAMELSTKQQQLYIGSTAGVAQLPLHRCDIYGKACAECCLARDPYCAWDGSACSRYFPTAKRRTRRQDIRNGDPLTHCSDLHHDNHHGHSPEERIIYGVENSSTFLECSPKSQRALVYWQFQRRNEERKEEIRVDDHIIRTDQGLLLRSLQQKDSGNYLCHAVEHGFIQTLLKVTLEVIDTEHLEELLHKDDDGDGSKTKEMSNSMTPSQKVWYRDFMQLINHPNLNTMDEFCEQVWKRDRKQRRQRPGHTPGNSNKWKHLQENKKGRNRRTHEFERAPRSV
The assay is described as follows: SPR (Biacore 2000), neuropilin 1 domain fixed on CM5 chip, semaphorin 3A as analyte 1 uM to 62.5 nM. As to the method: (§1) First, the affinity to a neuropilin receptor was performed on neuropilin 1 (NRP 1). Specifically, surface plasmon resonance (SPR) was performed using Biacore 2000 (GE Healthcare) in order to investigate the binding ability of TPP to the neuropilin 1 domain. Specifically, each neuropilin 1 domain was diluted in 10 mM Na-acetate buffer (pH 4.0), and fixed on CMS sensor chip (GE Healthcare, USA) at about 1,000 response units (RU). […] After the association/dissociation analysis, the CMS chip was regenerated by allowing buffer (20mM NaOH, 1M NaCl, pH 10.0) to flow at a flow rate of 30 μl/min for 1 minute.
For orientation: Surface plasmon resonance follows binding to a sensor surface in real time, without labels.

The assay “neuropilin 1 receptor” addresses B1. The assay is described as follows: SPR (Biacore 2000), neuropilin 1 domain fixed on CM5 chip, VEGF165 as analyte 80 nM to 5 nM. As to the method:
as §1

Consider B1, for which the Kd (commonly the concentration at which binding is half-saturated) with semaphorin 3A came out at 27.9 nM.

B2 showed a dissociation constant Kd with neuropilin 1 receptor of 3.51 nM. This lies in the single-digit nanomolar range.

Source of the values: patent US20180133288A1 (ILDONG PHARM, published 2018).
